Measured values reported in FireProtDB (doi:10.1002/pro.5560070509).

B1: NADP-dependent isopropanol dehydrogenase, P25984 (parent)
chain: MKGFAMLGINKLGWIEKERPVAGSYDAIVRPLAVSPCTSDIHTVFEGALGDRKNMILGHEAVGEVVEVGSEVKDFKPGDRVIVPCTTPDWRSLEVQAGFQQHSNGMLAGWKFSNFKDGVFGEYFHVNDADMNLAILPKDMPLENAVMITDMMTTGFHGAELADIQMGSSVVVIGIGAVGLMGIAGAKLRGAGRIIGVGSRPICVEAAKFYGATDILNYKNGHIVDQVMKLTNGKGVDRVIMAGGGSETLSQAVSMVKPGGIISNINYHGSGDALLIPRVEWGCGMAHKTIKGGLCPGGRLRAEMLRDMVVYNRVDLSKLVTHVYHGFDHIEEALLLMKDKPKDLIKAVVIL

Variants of: B1
Settings: Clostridium beijerinckii; pH 8.25; Thermal; DSC; Sodium phosphate 25 mM; NaCl 1 M; reversible: yes; structure 1KEV; whole UniProt chain shown

Variant	Tm	change of melting temperature, mutant - wild type (higher = more stable)
A347P	68.6 °C	2.6 °C
L316P	76.8 °C	10.8 °C
S24P L316P	77.1 °C	11.1 °C
T149P	65 °C	-1 °C
S24P	69.9 °C	3.9 °C
L275P	63.7 °C	-2.3 °C
A177P	66.5 °C	0.5 °C
H222P	59.5 °C	-6.5 °C
A22P	66.7 °C	0.7 °C
